The values that follow come from US20200024354A1 (OSSIANIX, published 2020).

T1: APRIL (Sigma) (UniProt O75888 105-250, limits assumed)
T1 sequence (looked up): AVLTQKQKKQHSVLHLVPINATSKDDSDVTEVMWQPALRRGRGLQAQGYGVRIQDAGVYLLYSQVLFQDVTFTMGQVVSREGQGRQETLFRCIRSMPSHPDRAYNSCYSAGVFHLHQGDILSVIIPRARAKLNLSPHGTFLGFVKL

B1: ID2-101A05 (VNAR)
VNAR: AARVDQTPQTITKETGESLTINCVLRDNNCALSTTYWYRKKSGSTNEENISKGGRYVETVNSGSKSFSLRINDLTVEDSGTYRCKVSKDWLLCRDRGRRETDVYGDGTAVTVNA
notes: Nurse shark VNAR single domain, tested as monomer
B2: ID2-101B10 (VNAR)
VNAR: AARVDQTPQTITKETGESLTINCVLRDSNCALSSTYWYRKKSGSTNEESISKGGRYVETVNSGSKSFSLRINDLTVEDSGTYRCKVRIDPLLCNASYVKWDDVYGGGTVVTVNA
notes: Nurse shark VNAR single domain, monomer
B3: ID2-101A12 (VNAR)
VNAR: AARVDQTPQTVTKETGESLTINCVLRDASYALGSTCWYRKKSGSRNEESISKGGRYVETVNSGSKSFSLRINDLTVEDSGTYRCKVRDPLLFPRDRCDGESKDVYGGGTVVTVNA
notes: as for B2
B4: ID2-101B07 (VNAR)
VNAR: AARVDQTPRSVTKETGESLTINCVLRDSICALSSTHWYRKKSGSTNEESISKGGRYVETVNSGSKSFSLRINDLTVEDSGTYRCKVHGGRSTGLCGDVLLAGDVYGGGTAVTVNA
notes: as for B2
B5: ID2-101A07 (VNAR)
VNAR: AARVDQTPQTITKETGESLTINCVLRDSNCALSNLYWYRKKSGSTNEESISLGGRYVETVNSGSKSFSLRINDLTVEDSGTYRCKVQLPYDPLTKECILGRMDVYGDGTAVTVNA
notes: as for B1
B6: ID2-101C03 (VNAR)
chain: AQAAARVDQTPRSVTKETGESLTINCVLRDSICALSSTHWYRKKSGSTNEESISLGGRYVETVNSGSKSFSLKINDLTVEDSGTYRCKVTRYVVFSGSTCRMRRADVYGGGTVVTMNAASGAHHHHHHGADYKDDDDK
notes: Nurse shark VNAR single domain, monomer in periplasmic extract
B7: ID2-101C02 (VNAR)
VNAR: AARVDQTPQTITKETGESLTINCVLRDNNCALSTTYWYRKKSGSTNEENISKGGRYVETVNSGSKSFSLKINDLTVKDSGTYRCKVTRDPLFCSYRASKRHDVYGGGTVVTVNA
notes: as for B6
B8: ID2-101A01 (VNAR)
VNAR: AARVDQTPQTITKETGESLTINCVLRDSNCALSNLYWYRKKSGSTNEESISLGGRYVETVNSGSKSFSLRINDLTVEDSGTYRCKVRRARVIGGEYCRVQWQDVYGGGTAVTVNA
notes: as for B6
B9: ID2-101B03 (VNAR)
VNAR: AARVDQTPRSVTKETGESLTINCVLRDNNCALSTTYWYRKKSGSTNEENISKGGRYVETVNSGSKSFSLRINDLTVEDSGTYRCKVKPDLLFCSSSGLGLIQDVYGGGTAVTVNA
notes: as for B6
B10: ID2-101B05 (VNAR)
VNAR: AARVDQTPRSVTKETGESLTINCVLRDSICALSSTHWYRKKSGSTNEESISKGGRYVETVNSGSKSFSLRINDLTVEDSGTYRCKVNHDLLTSSRRCQSQIKDVYGGGTVVTVNA
notes: as for B2
B11: ID2-101B01 (VNAR)
VNAR: AARVDQTPQTITKETGESLTINCVLRDSNCALSSTYWYRKKSGSTNEESISKGGRYVETVNSGSKSFSLRINDLTVEDSGTYRCNVAPTIISGCSIKRRDVYGGGTAVTVNA
notes: as for B2
B12: ID2-101B11 (VNAR)
VNAR: AARVDQTPRSVTKETGESLTINCVLRDSNCALSSTYWYRKKSGSTNEENISKGGRYVETVNSGSKSFSLRINDLTVEDSGTYRCKVMLDPLLCPALLESMTDVYGGGTAVTVNA
notes: as for B2
B13: ID2-101C01 (VNAR)
VNAR: AARVDQTPQTITKETGESLTINCVLRDNNCALSTTYWYRKKSGSTNEENISKGGRYVETVNSGSKSFSLRINDLTVEDSGTYRCKVRLDLLLCRNGSTNSIDVYGGGTAVTVNA
notes: as for B2
B14: ID2-101B12 (VNAR)
VNAR: AARVDQTPQTITKETGESLTINCVLRDSNCALSSTYWYRKKSGSTNEESISKGGRYVETVNSGSKSFSLRINDLTVEDSGTYRCKVFIDPLLCSRDALGFSDVYGDGTAVTVNA
notes: as for B2
B15: ID2-101A03 (VNAR)
VNAR: AARVDQTPQTITKETGESLTINCVLRDNNCALSTTYWYRKKSGSTNEENISKGGRYVETVNSGSKSFSLKINDLTVEDSGTYRCKVRVDRLLCGWRVGRRQLGDVYGGGTVVTVNA
notes: as for B2

T2 sequence (P02768 25-609 limits assumed): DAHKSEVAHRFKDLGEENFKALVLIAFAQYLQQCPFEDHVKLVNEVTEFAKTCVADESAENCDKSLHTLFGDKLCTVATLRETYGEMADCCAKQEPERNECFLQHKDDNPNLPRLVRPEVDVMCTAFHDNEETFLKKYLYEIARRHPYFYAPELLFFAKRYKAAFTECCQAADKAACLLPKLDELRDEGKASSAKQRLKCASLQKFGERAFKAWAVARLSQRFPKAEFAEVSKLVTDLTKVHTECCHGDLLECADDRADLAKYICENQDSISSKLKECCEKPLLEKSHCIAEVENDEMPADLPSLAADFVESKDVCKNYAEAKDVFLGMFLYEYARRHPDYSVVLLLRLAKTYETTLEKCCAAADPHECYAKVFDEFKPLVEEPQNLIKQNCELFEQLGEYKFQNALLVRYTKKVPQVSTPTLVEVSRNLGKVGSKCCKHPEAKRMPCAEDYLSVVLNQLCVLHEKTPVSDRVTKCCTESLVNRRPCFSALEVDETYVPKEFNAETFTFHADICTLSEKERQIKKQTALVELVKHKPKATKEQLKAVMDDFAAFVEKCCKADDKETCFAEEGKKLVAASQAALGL

In one assay the target is recombinant mouse BAFF (R&D Systems) (mouse, UniProt Q9WU72 127-309). The assay can be described thus: Mouse cross-reactivity grade (binds to both human and mouse BAFF); assay not described.
Sequence of recombinant mouse BAFF (R&D Systems) (Q9WU72 127-309 limits assumed): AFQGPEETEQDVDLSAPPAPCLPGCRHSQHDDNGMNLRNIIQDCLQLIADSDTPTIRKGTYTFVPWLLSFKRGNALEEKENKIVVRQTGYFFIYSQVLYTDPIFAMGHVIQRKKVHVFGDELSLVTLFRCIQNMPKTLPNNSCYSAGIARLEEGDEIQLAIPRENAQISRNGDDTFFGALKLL
Turning to B1, the binding result is on record as “binds”.

For B2, the binding result was “binds”.

A further assay addresses T2, human serum albumin (Sigma) (human, UniProt P02768 25-609).
T2 construct: Negative control coat; also called HSA
The assay can be described thus: ELISA, periplasmic extract on coated HSA (1 µg/mL), anti-FLAG-HRP. Background: In an ELISA, binding on a coated surface is turned into a signal by an enzyme label.
For B3, the binding result is “no binding”.

Regarding B4, the binding result is listed as “no binding”.

The target of a further assay is T3, recombinant human BAFF-Fc (Sino Biological) (human, UniProt Q9Y275 134-285).
T3 construct: Bought reagent; also called hBAFF; not shown: Fc moiety detected by anti-human Fc
T3 sequence (Q9Y275 134-285): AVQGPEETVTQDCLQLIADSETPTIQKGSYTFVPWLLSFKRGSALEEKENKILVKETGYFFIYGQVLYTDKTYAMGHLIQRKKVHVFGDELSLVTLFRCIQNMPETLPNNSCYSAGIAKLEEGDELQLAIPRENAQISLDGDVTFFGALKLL
The assay can be described thus: blocking ELISA, VNAR diluted with 0.5 nM BAFF-Fc; binding of BAFF-Fc to coated BCMA. Here is the method: (§1) The pre-blocked proteins were then exposed to Nunc Maxisorp 96 well plates which were coated at 1 μg/mL with the recombinant human TACI or BCMA (Peprotech), preblocked in (PBS-0.1% Tween+2.5% Milk). After washing in PBS-0.1% Tween, BAFF bound to its receptor was detected via its Fc moiety using a peroxidase-conjugated anti-human Fc (Sigma). Absorbance at 450 nm was recorded using an Envision multiwell reader (Perkin Elmer) and IC50 values were calculated by fitting the curves (non-linear regression) using GraphPad Prism®. The results are shown in FIG. 15 and the fitted IC50 values are tabulated below.
By IC50 is commonly meant the concentration that gives 50% inhibition. B1: the IC50 is 17.4 nM.

On to B4, for which the IC50 stood at 18.9 nM.

Consider B5, for which the IC50 amounted to 24.5 nM.

Take B2: the IC50 amounted to 10.5 nM.

In the next assay the target is T3, recombinant human BAFF-Fc (Sino …). The assay can be described thus: blocking ELISA, binding of BAFF-Fc to coated BR3 (BAFF-R); repeats Table 2.
As to B1, the IC50 came to 13.8 nM.

B4: the IC50 is 6.8 nM.

Regarding B5, the IC50 amounted to 6.8 nM.

Consider B2, for which the IC50 is 2.8 nM.

The next assay shares this target. The assay can be described thus: blocking ELISA, VNAR diluted with 0.5 nM BAFF-Fc; binding of BAFF-Fc to coated TACI. Here is the method: as §1
As to B1, the IC50 was 57.8 nM.

B4: the IC50 was 24 nM.

As to B5, the IC50 is 82.7 nM.

Turning to B2, the IC50 is 14.1 nM.

The target is the same in another assay. The assay is described as follows: ELISA, periplasmic extract on coated BAFF-Fc (1 µg/mL), anti-FLAG-HRP. Here is the method:
(§2) After selection rounds three and four, 93 individual clones were picked and grown in 96 deep-well plates in auto-induction medium (Novagen). Periplasmic protein was extracted by osmotic shock as described in Müller M R et al. (Generation and isolation of target-specific single-domain antibodies from shark immune repertoires. Methods Mol Biol. 2012; 907:177-94) and directly used in a binding ELISA. Briefly, Nunc Maxisorp 96-well plates were coated at 1 μg/mL with either BAFF-Fc or HSA and periplasmic fraction, pre-blocked in PBS-0.1% Tween+2.5% milk, was exposed to the coated surface. After washing in PBS-0.1% Tween, bound VNARs were detected using a peroxidase-conjugated anti-FLAG antibody (Sigma). Absorbance at 450 nm was recorded using an Envision multiwell reader (Perkin Elmer) and BAFF-specific clones were selected using the criteria: BAFF signal/HSA signal ≥4. The DNA sequence of positive clones was determined by the Sanger chain termination method (GATC biotech), using the specific oligonucleotide 5′-[…]-3′. Protein alignments were performed using the BioEdit software.
B6: the binding result is recorded as “binds”.

In the case of B7, the binding result was “binds”.

Consider B8, for which the binding result was “binds”.

On to B9, for which the binding result was “binds”.

For a further assay the target is unchanged. The assay can be described thus: blocking ELISA, VNAR diluted with 1.14 nM BAFF-Fc; binding of BAFF-Fc to coated BAFF-R extracellular domain.
For B3, the IC50 was determined as 49.2 nM.

For the molecule B10, the IC50 turned out to be 148 nM.

Consider B11, for which the IC50 was 91.2 nM.

Turning to B1, the IC50 is 13.8 nM.

B12: the IC50 is 6.85 nM.

For the molecule B4, the IC50 is 6.8 nM.

In the case of B5, the IC50 is 6.8 nM.

In the case of B2, the IC50 was 2.8 nM.

On to B13, for which the IC50 worked out at 3.85 nM.

With B14, the IC50 stood at 9.32 nM.

As for B15, the IC50 was 12.3 nM.

In the next assay the target is T2, human serum albumin (Sigma). The assay can be described thus: ELISA, periplasmic extract on coated HSA (1 µg/mL), anti-FLAG-HRP. The source holds these as a separate data set. As for the experimental part: as §2
Regarding B10, the binding result is “no binding”.

As for B11, the binding result was “no binding”.

For the molecule B1, the binding result is listed as “no binding”.

For the molecule B12, the binding result is on record as “no binding”.

Regarding B5, the binding result is “no binding”.

On to B2, for which the binding result is reported as “no binding”.

For the molecule B13, the binding result is recorded as “no binding”.

Turning to B14, the binding result is “no binding”.

On to B15, for which the binding result is “no binding”.

The next assay addresses T3, recombinant human BAFF-Fc (Sino …). The assay is described as follows: cell-based or functional assay.
B1: the “CELLULAR IC50” value came out at 135 nM.

For B4, the “CELLULAR IC50” value came out at 60 nM.

For the molecule B5, the “CELLULAR IC50” value came to 58 nM.

On to B2, for which the “CELLULAR IC50” value is approximately 100 nM.

The target is the same in another assay. The assay can be described thus: ELISA, purified monomeric VNAR on coated BAFF-Fc, anti-FLAG detection.
In general, EC50 refers to the concentration at which the effect is half-maximal. With B3, the EC50 came out at 4.57 nM.

On to B10, for which the EC50 turned out to be 11.8 nM.

For the molecule B11, the EC50 amounted to 7.4 nM.

Regarding B1, the EC50 is 1.5 nM.

Regarding B12, the EC50 worked out at 2.49 nM.

Turning to B4, the EC50 was found to be 0.8 nM.

With B5, the EC50 came to 0.5 nM.

Take B2: the EC50 was 1 nM.

Consider B13, for which the EC50 was 2.13 nM.

B14: the EC50 amounted to 2.7 nM.

For B15, the EC50 was 17.2 nM.

Another assay deals with T1, APRIL (Sigma). The assay is described as follows: ELISA, periplasmic extract on coated APRIL (1 µg/mL), anti-FLAG-HRP. Here is the method: Clones blocking the interaction between BAFF and its three receptors were tested for their ability to cross-react with BAFF's closest related protein, APRIL. Clones were grown in a 96 well format, periplasmic fraction was extracted by osmotic shock as previously described and directly used in a binding ELISA. Nunc Maxisorp 96 well plates were coated at 1 μg/mL with either BAFF-Fc (Sino Biological), HSA (Sigma), or APRIL (Sigma) and periplasmic fraction, pre-blocked in PBS-0.1% Tween+2.5% Milk, was exposed to the coated surface. After washing in PBS-0.1% Tween, bound VNARs were detected using a peroxidase-conjugated anti-FLAG antibody (Sigma). Absorbance at 450 nm was recorded using an Envision multiwell reader (Perkin Elmer).
With B10, the binding result is on record as “no binding”.

B1: the binding result was “no binding”.

As for B12, the binding result is given as “no binding”.

With B5, the binding result is on record as “no binding”.

With B2, the binding result is on record as “no binding”.

For B14, the binding result is recorded as “no binding”.

Take B15: the binding result is listed as “no binding”.
